Data reported in patent publication US20020127232A1.

Key:
[1] = target: α2M receptor on peritoneal macrophages of C57BL/6 mice (mouse) (UniProt Q91ZX7); test: saturation binding of 125I-labeled ligand (0.23-60 nM) to mouse peritoneal macrophages at 4 °C for 16 h; one-site fit; concentration based on the mixture of slow and fast forms
[2] = target: α2M receptor on peritoneal macrophages of C57BL/6 mice (mouse) (UniProt Q91ZX7); test: saturation binding of 125I-labeled ligand (0.23-60 nM) to mouse peritoneal macrophages at 4 °C for 16 h; one-site fit

## α2M*-lysozyme complex formed by incubation at 50° C. (5 h), radio-iodinated with Na125I (from UniProt P01023 24-1474; P00698 19-147)
[1]
  Kd: 8 nM

B1: α2-macroglobulin* (NH3-treated, thiol ester-cleaved human α2-macroglobulin) (protein, UniProt P01023 24-1474, looked up)
chain: SVSGKPQYMVLVPSLLHTETTEKGCVLLSYLNETVTVSASLESVRGNRSLFTDLEAENDVLHCVAFAVPKSSSNEEVMFLTVQVKGPTQEFKKRTTVMVKNEDSLVFVQTDKSIYKPGQTVKFRVVSMDENFHPLNELIPLVYIQDPKGNRIAQWQSFQLEGGLKQFSFPLSSEPFQGSYKVVVQKKSGGRTEHPFTVEEFVLPKFEVQVTVPKIITILEEEMNVSVCGLYTYGKPVPGHVTVSICRKYSDASDCHGEDSQAFCEKFSGQLNSHGCFYQQVKTKVFQLKRKEYEMKLHTEAQIQEEGTVVELTGRQSSEITRTITKLSFVKVDSHFRQGIPFFGQVRLVDGKGVPIPNKVIFIRGNEANYYSNATTDEHGLVQFSINTTNVMGTSLTVRVNYKDRSPCYGYQWVSEEHEEAHHTAYLVFSPSKSFVHLEPMSHELPCGHTQTVQAHYILNGGTLLGLKKLSFYYLIMAKGGIVRTGTHGLLVKQEDMKGHFSISIPVKSDIAPVARLLIYAVLPTGDVIGDSAKYDVENCLANKVDLSFSPSQSLPASHAHLRVTAAPQSVCALRAVDQSVLLMKPDAELSASSVYNLLPEKDLTGFPGPLNDQDNEDCINRHNVYINGITYTPVSSTNEKDMYSFLEDMGLKAFTNSKIRKPKMCPQLQQYEMHGPEGLRVGFYESDVMGRGHARLVHVEEPHTETVRKYFPETWIWDLVVVNSAGVAEVGVTVPDTITEWKAGAFCLSEDAGLGISSTASLRAFQPFFVELTMPYSVIRGEAFTLKATVLNYLPKCIRVSVQLEASPAFLAVPVEKEQAPHCICANGRQTVSWAVTPKSLGNVNFTVSAEALESQELCGTEVPSVPEHGRKDTVIKPLLVEPEGLEKETTFNSLLCPSGGEVSEELSLKLPPNVVEESARASVSVLGDILGSAMQNTQNLLQMPYGCGEQNMVLFAPNIYVLDYLNETQQLTPEIKSKAIGYLNTGYQRQLNYKHYDGSYSTFGERYGRNQGNTWLTAFVLKTFAQARAYIFIDEAHITQALIWLSQRQKDNGCFRSSGSLLNNAIKGGVEDEVTLSAYITIALLEIPLTVTHPVVRNALFCLESAWKTAQEGDHGSHVYTKALLAYAFALAGNQDKRKEVLKSLNEEAVKKDNSVHWERPQKPKAPVGHFYEPQAPSAEVEMTSYVLLAYLTAQPAPTSEDLTSATNIVKWITKQQNAQGGFSSTQDTVVALHALSKYGAATFTRTGKAAQVTIQSSGTFSSKFQVDNNNRLLLQQVSLPELPGEYSMKVTGEGCVYLQTSLKYNILPEKEEFPFALGVQTLPQTCDEPKAHTSFQISLSVSYTGSRSASNMAIVDVKMVSGFIPLKPTVKMLERSNHVSRTEVSSNHVLIYLDKVSNQTLSLFFTVLQDVPVRDLKPAIVKVYDYYETDEFAIAEYNAPCSKDLGNA
modifications: thiol ester cleaved by NH3: free Cys949, Gln952 modified with -NH2; bait region intact; radio-iodinated with Na125I in the macrophage binding study
[2]
  Kd: 5 nM
